Molecular target: CD19 (human) (UniProt P15391)
Test: cell-based or functional assay

Chain of UniProt P15391 (P15391 20-556): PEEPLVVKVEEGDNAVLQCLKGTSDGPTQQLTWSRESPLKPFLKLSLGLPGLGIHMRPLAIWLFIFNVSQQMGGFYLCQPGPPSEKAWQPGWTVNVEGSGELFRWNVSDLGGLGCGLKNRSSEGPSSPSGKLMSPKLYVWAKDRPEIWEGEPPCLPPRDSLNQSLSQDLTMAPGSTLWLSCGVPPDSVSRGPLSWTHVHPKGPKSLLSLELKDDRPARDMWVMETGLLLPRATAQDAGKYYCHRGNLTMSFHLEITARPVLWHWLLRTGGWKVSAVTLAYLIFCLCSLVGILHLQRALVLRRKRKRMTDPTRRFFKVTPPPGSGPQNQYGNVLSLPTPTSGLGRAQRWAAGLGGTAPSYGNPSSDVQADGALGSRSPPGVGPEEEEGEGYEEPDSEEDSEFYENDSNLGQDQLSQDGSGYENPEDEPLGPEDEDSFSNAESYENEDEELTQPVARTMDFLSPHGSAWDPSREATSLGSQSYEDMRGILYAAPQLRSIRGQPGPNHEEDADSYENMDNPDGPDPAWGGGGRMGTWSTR

portion of CAR19-NK cells that acquired CD19 on their surface (trogocytosis) within minutes of co-culture with Raji targets, flow cytometry: 75%
Substance: anti-CD19 activating CAR (19scFv.CD28.zeta) (from UniProt P10747 153-220; P20963 52-164)

Reference: patent US20240261332A1
